Assay [1] has as its target T1, human transferrin receptor (human TfR) (human, UniProt P02786 89-760, limits assumed).
T1 construct: Recombinant target coated on plates or biotinylated and captured on streptavidin (ELISA, BLI); also called huTfR
The assay can be described thus: phage ELISA. The method, then: (§1) Clones were selected from panning outputs and grown in individual wells of 96-well deep-well plates. The clones were either induced for periplasmic expression using autoinduction media (obtained from EMD Millipore) or infected with helper phage for phage-display of the individual Fc variants on phage. The cultures were grown overnight and spun to pellet E. coli. For phage ELISA, phage containing supernatant was used directly. For periplasmic expression, pellets were resuspended in 20% sucrose, followed by dilution at 4:1 with water, and shaken at 4° C. for 1 hour. Plates were spun to pellet the solids and supernatant was used in the ELISA.
(§2) ELISA plates were coated with target, typically at […] overnight, then blocked with 1% BSA before addition of phage or periplasmic extracts. […] The plates were washed again, and then developed with TMB reagent and quenched with 2N sulfuric acid. Absorbance at 450 nm was quantified using a plate reader (BioTek®) and binding curves were plotted using Prism software where applicable. Absorbance signal for tested clones was compared to negative control (phage or paraplasmic extract lacking Fc). In some assays, soluble holo-transferrin was added during the binding step, typically at significant molar excess (greater than 10-fold excess).
(§3) Individual CH2A2 variants were expressed on the surface of phage and assayed for binding to human TfR, cyno TfR, or an irrelevant control by ELISA. Expression of Fc was confirmed by ELISA against anti-Myc antibody 9E10, which bound to the C-terminal c-Myc epitope tag. […] The three clones from group 1 also bound to cyno TfR, whereas the one clone from group 2 (i.e., clone 2A2.16) was specific for human TfR.

In assay [2] the target is cynomolgus transferrin receptor (cyno TfR) (cynomolgus monkey, UniProt H9EXL1 89-760 (rhesus entry)). As to the kind of experiment: phage ELISA. The protocol:
as §1, §2, §3
A general note: In an ELISA, binding on a coated surface is turned into a signal by an enzyme label.

From patent publication US20220017634A1 (DENALI THERAPEUTICS, published 2022) come the findings set out here.

T1 sequence (P02786 89-760 limits assumed): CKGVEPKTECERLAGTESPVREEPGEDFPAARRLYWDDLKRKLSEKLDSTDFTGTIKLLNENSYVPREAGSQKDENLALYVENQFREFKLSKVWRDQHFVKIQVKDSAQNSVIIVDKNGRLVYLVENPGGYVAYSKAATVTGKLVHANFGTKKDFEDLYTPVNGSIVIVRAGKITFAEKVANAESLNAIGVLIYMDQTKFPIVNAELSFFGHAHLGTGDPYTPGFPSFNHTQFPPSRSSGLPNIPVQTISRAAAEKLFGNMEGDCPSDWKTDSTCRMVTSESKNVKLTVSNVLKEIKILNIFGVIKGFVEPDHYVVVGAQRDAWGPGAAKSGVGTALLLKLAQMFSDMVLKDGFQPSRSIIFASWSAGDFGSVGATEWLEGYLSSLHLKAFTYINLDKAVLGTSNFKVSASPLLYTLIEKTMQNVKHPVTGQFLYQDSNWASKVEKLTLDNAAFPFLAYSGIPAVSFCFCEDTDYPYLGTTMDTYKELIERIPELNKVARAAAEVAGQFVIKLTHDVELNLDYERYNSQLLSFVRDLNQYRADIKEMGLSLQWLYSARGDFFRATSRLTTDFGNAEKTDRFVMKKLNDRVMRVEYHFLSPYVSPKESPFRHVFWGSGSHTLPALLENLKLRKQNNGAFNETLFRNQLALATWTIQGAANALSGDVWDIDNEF
Chain of cynomolgus transferrin receptor (cyno TfR) (chain, as listed by the source): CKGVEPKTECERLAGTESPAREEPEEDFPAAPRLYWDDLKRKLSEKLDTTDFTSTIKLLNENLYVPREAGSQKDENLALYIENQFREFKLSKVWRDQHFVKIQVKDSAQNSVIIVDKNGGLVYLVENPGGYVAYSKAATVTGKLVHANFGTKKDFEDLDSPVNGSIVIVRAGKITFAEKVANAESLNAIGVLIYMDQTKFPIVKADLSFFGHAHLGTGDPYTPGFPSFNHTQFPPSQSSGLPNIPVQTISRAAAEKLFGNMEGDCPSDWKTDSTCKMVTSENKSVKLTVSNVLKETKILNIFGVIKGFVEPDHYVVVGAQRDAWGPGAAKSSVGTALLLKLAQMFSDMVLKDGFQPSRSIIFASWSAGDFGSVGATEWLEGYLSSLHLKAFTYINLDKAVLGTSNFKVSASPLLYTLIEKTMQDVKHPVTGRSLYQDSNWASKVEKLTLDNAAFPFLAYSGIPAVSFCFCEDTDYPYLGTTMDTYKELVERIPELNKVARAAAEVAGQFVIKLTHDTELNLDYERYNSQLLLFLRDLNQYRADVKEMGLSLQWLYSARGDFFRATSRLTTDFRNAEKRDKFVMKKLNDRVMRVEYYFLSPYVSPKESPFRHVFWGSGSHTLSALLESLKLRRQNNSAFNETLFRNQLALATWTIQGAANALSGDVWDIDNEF

B1: Clone CH2A2.4, Fc displayed on phage (designed binder)
chain: APELLGGPSVFLFPPKPKDTLMISRTPEVTCVVVDVSHEDPEVSFEWYVDGVPVRWEWQWPREEQYNSTYRVVSVLTVLHQDWLNGKEYKCKVSNKALPAPIEKTISKAKGQPREPQVYTLPPSRDELTKNQVSLTCLVKGFYPSDIAVEWESNGQPENNYKTTPPVLDSDGSFFLYSKLTVDKSRWQQGNVFSCSVMHEALHNHYTQKSLSLSPGK
notes: As m16
Turning to B1, in assay [1], the binding result is recorded as “binds”.

B2: Clone CH2A2.1, Fc displayed on phage (designed binder)
chain: APELLGGPSVFLFPPKPKDTLMISRTPEVTCVVVDVSHEDPEVEFIWYVDGVDVRYEWQLPREEQYNSTYRVVSVLTVLHQDWLNGKEYKCKVSNKALPAPIEKTISKAKGQPREPQVYTLPPSRDELTKNQVSLTCLVKGFYPSDIAVEWESNGQPENNYKTTPPVLDSDGSFFLYSKLTVDKSRWQQGNVFSCSVMHEALHNHYTQKSLSLSPGK
notes: Fc dimer on phage (pIII fusion with c-Myc and 6xHis tags paired with soluble Fc)
On to B2, for which the binding result in assay [1] is listed as “binds”.

B3: Clone CH2A2.5, Fc displayed on phage (designed binder)
chain: APELLGGPSVFLFPPKPKDTLMISRTPEVTCVVVDVSHEDPEVAFTWYVDGVPVRWEWQNPREEQYNSTYRVVSVLTVLHQDWLNGKEYKCKVSNKALPAPIEKTISKAKGQPREPQVYTLPPSRDELTKNQVSLTCLVKGFYPSDIAVEWESNGQPENNYKTTPPVLDSDGSFFLYSKLTVDKSRWQQGNVFSCSVMHEALHNHYTQKSLSLSPGK
notes: As m16
Consider B3, for which the binding result in assay [1] is listed as “binds”.

B4: Clone CH2A2.16, Fc displayed on phage (designed binder)
chain: APELLGGPSVFLFPPKPKDTLMISRTPEVTCVVVDVSHEDPEVWFEWYVDGVFVGVAYDVPREEQYNSTYRVVSVLTVLHQDWLNGKEYKCKVSNKALPAPIEKTISKAKGQPREPQVYTLPPSRDELTKNQVSLTCLVKGFYPSDIAVEWESNGQPENNYKTTPPVLDSDGSFFLYSKLTVDKSRWQQGNVFSCSVMHEALHNHYTQKSLSLSPGK
notes: As m16
B4: the binding result is listed as “binds” in assay [1] and “no binding” in assay [2].
